Drawing on patent US20080207498A1, “Methods for Treating Alzheimer's Disease” (priority 2005, published 2008), this text covers OD 405 nm for five molecules.

No end group written: not given here.

The target in the first assay is Preformed immune complex of peroxidase and rabbit anti-peroxidase IgG (PAP complex) (horseradish) (UniProt P00433). As to the kind of experiment: competition reverse ELISA: PAP pre-incubated with peptide, residual PAP binding to plate coated with human wt tau. On the technique in general: ELISA stands for enzyme-linked immunosorbent assay.
Chain of Preformed immune complex of peroxidase and rabbit anti-peroxidase IgG (PAP complex) (horseradish) (P00433 31-338, one chain of several): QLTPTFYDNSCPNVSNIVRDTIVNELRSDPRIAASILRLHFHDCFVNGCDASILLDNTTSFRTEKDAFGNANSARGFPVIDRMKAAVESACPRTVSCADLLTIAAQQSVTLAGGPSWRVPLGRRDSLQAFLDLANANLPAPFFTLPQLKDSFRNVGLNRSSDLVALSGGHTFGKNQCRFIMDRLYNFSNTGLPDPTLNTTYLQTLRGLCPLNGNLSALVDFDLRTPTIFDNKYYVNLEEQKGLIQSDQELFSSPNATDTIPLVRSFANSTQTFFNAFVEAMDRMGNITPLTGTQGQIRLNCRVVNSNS
The molecule APPDCAWHLGELVWCT [Peptide … (SEQ ID NO:16)] displayed an OD 405 nm of 0.059 OD.

The next assay has the same target. In words: competition reverse ELISA: PAP pre-incubated with peptide, residual PAP binding to FcγIIb-coated plate.
As to APPCARHLGELVWCT (not fully specified; cysteine pairing not given here) [Peptide … (SEQ ID NO:14)], the OD 405 nm was found to be 0.768 OD.
The molecule APPDCAWHLGELVWCT [Peptide … (SEQ ID NO:16)] showed an OD 405 nm of 0.496 OD.
Same read-out and setting: the figure for APPCAFHLGELVWCT (not fully specified; cysteine pairing not given here) [Peptide … (SEQ ID NO:15)] is 0.38 OD.
The same measure, in the same setting: the value for APPCAWHLGELVWCT (not fully specified; cysteine pairing not given here) [Peptide … (SEQ ID NO:13)] was 0.562 OD; that for DCAFHLGELVWCT [Peptide … (SEQ ID NO:3)] was 0.51 OD.

For the next assay the target is unchanged. In words: competition reverse ELISA: PAP pre-incubated with peptide, residual PAP binding to FcγIIa-coated plate.
Regarding APPCARHLGELVWCT (not fully specified; cysteine pairing not given here) [Peptide … (SEQ ID NO:14)], the OD 405 nm was found to be 0.956 OD.
Turning to APPDCAWHLGELVWCT [Peptide … (SEQ ID NO:16)], the OD 405 nm was 0.509 OD.
Still for that read-out and setting: the value for APPCAFHLGELVWCT (not fully specified; cysteine pairing not given here) [Peptide … (SEQ ID NO:15)] was 0.605 OD.
Same read-out and setting: the figure for APPCAWHLGELVWCT (not fully specified; cysteine pairing not given here) [Peptide … (SEQ ID NO:13)] is 0.658 OD; for DCAFHLGELVWCT [Peptide … (SEQ ID NO:3)] it is 0.66 OD.

Another assay has the same target. As to the kind of experiment: competition reverse ELISA: PAP pre-incubated with peptide, residual PAP binding to plate coated with human wt β amyloid peptide 1-40.
For APPDCAWHLGELVWCT [Peptide … (SEQ ID NO:16)], the OD 405 nm is 0.885 OD.

For the next assay the target is unchanged. As to the kind of experiment: competition reverse ELISA: PAP pre-incubated with peptide, residual PAP binding to C1q-coated plate.
In the case of APPCARHLGELVWCT (not fully specified; cysteine pairing not given here) [Peptide … (SEQ ID NO:14)], the OD 405 nm was 0.567 OD.
The same measure, in the same setting: the figure for APPDCAWHLGELVWCT [Peptide … (SEQ ID NO:16)] is 0.389 OD; for APPCAFHLGELVWCT (not fully specified; cysteine pairing not given here) [Peptide … (SEQ ID NO:15)] it is 0.983 OD; for APPCAWHLGELVWCT (not fully specified; cysteine pairing not given here) [Peptide … (SEQ ID NO:13)] it is 1.15 OD.
Still for that read-out and setting: the figure for DCAFHLGELVWCT [Peptide … (SEQ ID NO:3)] is 0.859 OD.

The next assay shares this target. As to the kind of experiment: competition reverse ELISA: PAP pre-incubated with peptide, residual PAP binding to FcγIII-coated plate.
APPCARHLGELVWCT (not fully specified; cysteine pairing not given here) [Peptide … (SEQ ID NO:14)] gave an OD 405 nm of 0.709 OD.
Still for that read-out and setting: the value for APPDCAWHLGELVWCT [Peptide … (SEQ ID NO:16)] was 0.67 OD.
APPCAFHLGELVWCT (not fully specified; cysteine pairing not given here) [Peptide … (SEQ ID NO:15)] yielded an OD 405 nm of 0.88 OD.
Same read-out and setting: the value for APPCAWHLGELVWCT (not fully specified; cysteine pairing not given here) [Peptide … (SEQ ID NO:13)] was 0.53 OD; that for DCAFHLGELVWCT [Peptide … (SEQ ID NO:3)] was 0.81 OD.
